Measurements as given in patent US20190038704A1 (SANFORD BURNHAM PREBYS MEDICAL DISCOVERY INSTITUTE, published 2019).
Bridge positions count the residues as written; N and C are the ends. Square brackets hold non-standard residues; d marks the D form. Ends that are not written are not given here. βAla = NCCC(=O)O

Columns and labels:
[1] = biological target: EphA4 in stably transfected human embryonal kidney (HEK293) cells; experiment: cell-based or functional assay
[2] = biological target: T1, mouse EphA4 ectodomain fused to Fc (mouse, UniProt Q03137 20-547); experiment: competition ELISA: ephrin-A5 AP binding to immobilized EphA4 Fc
T1 construct: extracellular domain; Defined as 'EphA4 Fc; also called EphA4 Fc; not shown: Fc portion
T1 sequence (Q03137 20-547): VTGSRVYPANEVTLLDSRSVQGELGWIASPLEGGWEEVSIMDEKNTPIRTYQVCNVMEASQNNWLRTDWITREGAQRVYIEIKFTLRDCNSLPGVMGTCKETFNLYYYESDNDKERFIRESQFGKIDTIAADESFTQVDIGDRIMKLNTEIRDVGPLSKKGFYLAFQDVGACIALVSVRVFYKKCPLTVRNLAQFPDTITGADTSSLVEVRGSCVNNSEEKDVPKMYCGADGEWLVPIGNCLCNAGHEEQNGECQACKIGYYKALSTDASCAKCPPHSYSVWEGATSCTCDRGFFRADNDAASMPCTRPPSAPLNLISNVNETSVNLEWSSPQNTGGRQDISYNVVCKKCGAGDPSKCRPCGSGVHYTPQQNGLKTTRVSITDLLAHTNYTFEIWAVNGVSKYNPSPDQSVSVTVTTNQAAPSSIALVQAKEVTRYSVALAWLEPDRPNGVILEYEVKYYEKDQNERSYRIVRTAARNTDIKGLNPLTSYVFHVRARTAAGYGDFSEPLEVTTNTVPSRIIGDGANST
Protocol: OD₄₀₅ was measured and the absorbance from wells coated with Fc was subtracted as background.

Row | Binder | IC50 of inhibition of ephrin-A5-induced EphA4 tyrosine phosphorylation in HEK293 cells [1] [nM] | IC50 [2] [nM]
1 | APYCVYRXSWSC (βAla (3-aminopropanoic acid) at position 8; C-terminal amide; disulfide bridge Cys4-Cys12) [APY-βAla8.am] | ~300 | –
2 | APYCVYRXSWSC (aminoisobutyric acid (Aib) at position 8; C-terminal amide; disulfide bridge Cys4-Cys12) [APY-Aib8.am] | – | 2600
3 | APYCVYK[βAla]SWSC-NH2 (disulfide 4-12 (inferred), also called APYCVYKβASWSC-am) [APY-Lys7-βAla8.am] | – | 68
4 | APYCVYRXSWSC (D-Ala at position 8; C-terminal amide; disulfide bridge Cys4-Cys12) [APY-DAla8.am] | – | 280
5 | KYCVYR[βAla]SWSC-NH2 (disulfide 3-11 (inferred), numbers may be shifted) [KY-βAla8.am] | – | 260
6 | Ac-KYCVYR[βAla]SWSC-NH2 (disulfide 3-11 (inferred), numbers may be shifted) [ac.KY-βAla8.am] | – | 1160
7 | YCVYR[βAla]SWSC-NH2 (disulfide 2-10 (inferred), numbers may be shifted) [Y-βAla8.am] | – | 1470
8 | APYCVYRGSWSC-NH2 (disulfide 4-12, C-terminally amidated APY) [APY.am] | – | 280
9 | XPYCVYRGSWSC (D-Ala at position 1; C-terminal amide; disulfide bridge Cys4-Cys12) [DAla1-PY.am] | – | 1100
10 | XPYCVYRGSWSC (βAla at position 1; C-terminal amide; disulfide bridge Cys4-Cys12) [βAla1-PY.am] | – | 680
